In article PMC10716038, “Talin and kindlin use integrin tail allostery and direct binding to activate integrins” (Nature Structural & Molecular Biology, 2023):

How the values were obtained:
[1] = target: integrin β1A cytoplasmic tail (β1-CT), recombinant (UniProt P05556); assay: NMR titration; isotope-labelled β1-CT observed; TLN1-F3 and ΔKIND2 (wild type or K402E / Y13A) added together, ternary complex; 20 mM Tris, 200 mM NaCl, 1 mM DTT, pH 7.5, 298 K
[2] = target: ATTO 488-labelled β1-CT (488–β1-CT) (UniProt P05556); assay: MST; ATTO 488-labelled β-CT peptide (50–200 nM) held constant, one unlabelled protein titrated; 20 mM Tris pH 7.5, 200 mM NaCl, 1 mM TCEP, 0.05% Tween-20; apparent affinities (near-saturation only)
[3] = target: T1, β1 transmembrane and cytoplasmic tail polypeptide (β1-TM–CT) in nanodiscs (UniProt P05556 726-798, biotin (biotin-maleimide)); assay: FACS; 10% PIP2 nanodiscs
T1 chain: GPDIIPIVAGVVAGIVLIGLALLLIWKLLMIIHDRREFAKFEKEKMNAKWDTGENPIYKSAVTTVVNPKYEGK

[4] = target: T2, α5-TM lacking the cytoplasmic domain (tailless α5-TM) in nanodiscs (UniProt P11688 993-1025, biotin (biotin-maleimide)); assay: FACS; 10% PIP2 nanodiscs
T2 chain: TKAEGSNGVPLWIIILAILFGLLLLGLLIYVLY

[5] = target: T3, β3 transmembrane and cytoplasmic tail polypeptide (β3-TM–CT) in nanodiscs (UniProt O54890 715-787, biotin (biotin-maleimide)); assay: FACS; 10% PIP2 nanodiscs
T3 chain: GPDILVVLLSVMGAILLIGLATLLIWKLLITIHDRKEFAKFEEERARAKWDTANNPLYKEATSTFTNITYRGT

[6] = target: T1, β1 transmembrane and cytoplasmic tail …; assay: FACS; 10% PIP3 nanodiscs
[7] = target: T2, α5-TM lacking the cytoplasmic domain …; assay: FACS; 10% PIP3 nanodiscs
[8] = target: T3, β3 transmembrane and cytoplasmic tail …; assay: FACS; 10% PIP3 nanodiscs
[9] = target: T4, ATTO 488-labelled β3-CT (488–β3-CT) (UniProt O54890 741-787, ATTO 488 at the N terminus); assay: MST; as a7, with a second unlabelled protein present at near-saturating concentration (named in the quantity or in the printed words); apparent constants (Kd,app*); details: both partners purified
T4 construct: integrin β3 cytoplasmic tail; source: synthetic peptide (MPIB Core Facility)
T4 peptide (looked up): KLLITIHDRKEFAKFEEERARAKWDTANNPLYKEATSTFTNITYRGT

ΔKIND2^Y13A (domain or fragment)
decrease of the signal intensities of the membrane-proximal α-helix of β1-CT (H758–K770), 1:0.8 against 1:0.2, with TLN1-F3 K402E added together [1]: 10% | decrease of the signal intensities of the membrane-proximal α-helix of β1-CT (H758–K770), 1:0.8 against 1:0.2, with TLN1-F3 added together [1]: 30%

KIND2 lacking the flexible loop in F1 and the PH domain (ΔKIND2) (domain or fragment)
decrease of the signal intensities of the membrane-proximal α-helix of β1-CT (H758–K770), 1:0.8 against 1:0.2, with TLN1-F3 added together [1]: 50%

TLN1-F3–ΔKIND2^Y13A fusion protein
Kd of the kindlin contribution (fit of concentrations up to 5 µM) [2]: 2900 nM | Kd of the talin contribution (fit of concentrations above 5 µM) [2]: 16000 nM

B1: THD1^K402E (domain or fragment)
chain: MVALSLKISIGNVVKTMQFEPSTMVYDACRMIRERIPEALAGPPNDFGLFLSDDDPKKGIWLEAGKALDYYMLRNGDTMEYRKKQRPLKIRMLDGTVKTIMVDDSKTVTDMLMTICARIGITNHDEYSLVRELMEEKKDEGTGTLRKDKTLLRDEKKMEKLKQKLHTDDELNWLDHGRTLREQGVEEHETLLLRRKFFYSDQNVDSRDPVQLNLLYVQARDDILNGSHPVSFDKACEFAGFQCQIQFGPHNEQKHKAGFLDLKDFLPKEYVKQKGERKIFQAHKNCGQMSEIEAKVRYVKLARSLKTYGVSFFLVKEKMKGKNKLVPRLLGITKECVMRVDEKTKEVIQEWSLTNIKRWAASPKSFTLDFGDYQDGYYSVQTTEGEQIAQLIAGYIDIILKEKKS
IC50 [3]: 131 nM | IC50 [4]: 246 nM | IC50 [5]: 70 nM | IC50 [6]: 54 nM | IC50 [7]: 211 nM | IC50 [8]: 51 nM

B2: talin-1 head domain (THD1) (domain or fragment, UniProt P26039 1-405, looked up)
chain: MVALSLKISIGNVVKTMQFEPSTMVYDACRMIRERIPEALAGPPNDFGLFLSDDDPKKGIWLEAGKALDYYMLRNGDTMEYRKKQRPLKIRMLDGTVKTIMVDDSKTVTDMLMTICARIGITNHDEYSLVRELMEEKKDEGTGTLRKDKTLLRDEKKMEKLKQKLHTDDELNWLDHGRTLREQGVEEHETLLLRRKFFYSDQNVDSRDPVQLNLLYVQARDDILNGSHPVSFDKACEFAGFQCQIQFGPHNEQKHKAGFLDLKDFLPKEYVKQKGERKIFQAHKNCGQMSEIEAKVRYVKLARSLKTYGVSFFLVKEKMKGKNKLVPRLLGITKECVMRVDEKTKEVIQEWSLTNIKRWAASPKSFTLDFGDYQDGYYSVQTTEGEQIAQLIAGYIDIILKKKKS
notes: talin-1 (TLN1) head domain (F0-F3), residues 1-405; In FC-RDA a copy labelled with ATTO 565 (565–THD1) was the reporter; also called 565–THD1; source: E. coli (DE3) Rosetta 2, purified (IMAC, SEC); not shown: His10, N-terminal, cleaved; SUMO, N-terminal, cleaved
apparent Kd (Kd,app*) in the presence of KIND2 [9]: 102000 nM | apparent Kd (Kd,app*) in the presence of KIND2 Y13A [9]: 218000 nM

B3: THD1^K402E (domain or fragment, UniProt P26039 1-405, looked up)
chain: MVALSLKISIGNVVKTMQFEPSTMVYDACRMIRERIPEALAGPPNDFGLFLSDDDPKKGIWLEAGKALDYYMLRNGDTMEYRKKQRPLKIRMLDGTVKTIMVDDSKTVTDMLMTICARIGITNHDEYSLVRELMEEKKDEGTGTLRKDKTLLRDEKKMEKLKQKLHTDDELNWLDHGRTLREQGVEEHETLLLRRKFFYSDQNVDSRDPVQLNLLYVQARDDILNGSHPVSFDKACEFAGFQCQIQFGPHNEQKHKAGFLDLKDFLPKEYVKQKGERKIFQAHKNCGQMSEIEAKVRYVKLARSLKTYGVSFFLVKEKMKGKNKLVPRLLGITKECVMRVDEKTKEVIQEWSLTNIKRWAASPKSFTLDFGDYQDGYYSVQTTEGEQIAQLIAGYIDIILKEKKS
notes: talin-1 (TLN1) head domain, residues 1-405, with K402E; In FC-RDA a copy labelled with ATTO 565 was the reporter; also called 565–THD1^K402E; source: E. coli (DE3) Rosetta 2, purified (IMAC, SEC); not shown: His10, N-terminal, cleaved; SUMO, N-terminal, cleaved
apparent Kd (Kd,app*) in the presence of KIND2 [9]: 76000 nM

B4: KIND2^Y13A (natural protein)
chain: MALDGIRMPDGCAADGTWELSVHVTDLNRDVTLRVTGEVHIGGVMLKLVEKLDVKKDWSDHALWWEKKRTWLLKTHWTLDKCGIQADAKLQFTPQHKLLRLQLPNMKYVKVKVNFSDRVFKAVSDICKTFNIRHPEELSLLKKPRDPTKKKKKKLDDQSEDEALELEGPLIMPGSGSIYSSPGLYSKTMTPTYDAHDGSPLSPTSAWFGDSALSEGNPGILAVSQPVTSPEILAKMFKPQALLDKAKTNQGWLDSSRSLMEQDVKENEALLLRFKYYSFFDLNPKYDAIRINQLYEQAKWALLLEEIECTEEEMMMFAALQYHINKLSIMTSENHLNNSDKEVDEVDAALSDLEITLEGGKTSTILGDITSIPELADYIKVFKPKKLTLKGYKQYWCTFKDTSISCYKSREESSGTPAHQLNLRGCEVTPDVNISGQKFNIKLLIPVAEGMNEIWLRCDNEKQYAHWMAACRLASKGKTMADSSYNLEVQNILSFLKMQHLNPDPQLIPDQITTDVNPECLVSPRYLKKYKSKQITARILEAHQNVAQMSLIEAKMRFIQAWQSLPEFGITHFIARFQGGKREELIGIAYNRLIRMDASTGDAIKTWRFSNMKQWNVNWEIKMVTVEFADEVRLSFICTEVDCKVVHEFIGGYIFLSTRAKDQNESLDEEMFYKLTSGWV
IC50 [3]: 98 nM | IC50 [4]: 162 nM | IC50 [5]: 219 nM | IC50 [7]: 128 nM | IC50 [8]: 173 nM

B5: kindlin-2 (KIND2) (natural protein, UniProt Q8CIB5 1-680, looked up)
chain: MALDGIRMPDGCYADGTWELSVHVTDLNRDVTLRVTGEVHIGGVMLKLVEKLDVKKDWSDHALWWEKKRTWLLKTHWTLDKCGIQADAKLQFTPQHKLLRLQLPNMKYVKVKVNFSDRVFKAVSDICKTFNIRHPEELSLLKKPRDPTKKKKKKLDDQSEDEALELEGPLIMPGSGSIYSSPGLYSKTMTPTYDAHDGSPLSPTSAWFGDSALSEGNPGILAVSQPVTSPEILAKMFKPQALLDKAKTNQGWLDSSRSLMEQDVKENEALLLRFKYYSFFDLNPKYDAIRINQLYEQAKWALLLEEIECTEEEMMMFAALQYHINKLSIMTSENHLNNSDKEVDEVDAALSDLEITLEGGKTSTILGDITSIPELADYIKVFKPKKLTLKGYKQYWCTFKDTSISCYKSREESSGTPAHQLNLRGCEVTPDVNISGQKFNIKLLIPVAEGMNEIWLRCDNEKQYAHWMAACRLASKGKTMADSSYNLEVQNILSFLKMQHLNPDPQLIPDQITTDVNPECLVSPRYLKKYKSKQITARILEAHQNVAQMSLIEAKMRFIQAWQSLPEFGITHFIARFQGGKREELIGIAYNRLIRMDASTGDAIKTWRFSNMKQWNVNWEIKMVTVEFADEVRLSFICTEVDCKVVHEFIGGYIFLSTRAKDQNESLDEEMFYKLTSGWV
notes: kindlin-2 (KIND2) without the deletions of ΔKIND2; In FC-RDA a copy labelled with Alexa 647 (647–KIND2) was the reporter; also called 647–KIND2; source: E. coli Rosetta, purified (IMAC, SEC); not shown: His10, N-terminal, cleaved; SUMO, N-terminal, cleaved
apparent Kd (Kd,app*) in the presence of THD1 [9]: 54000 nM | apparent Kd (Kd,app*) in the presence of THD1 K402E [9]: 16000 nM | apparent Kd (Kd,app*) in the presence of THD2 [9]: 27000 nM | apparent Kd (Kd,app*) in the presence of TLN1-F3 [9]: 120000 nM | apparent Kd (Kd,app*) in the presence of TLN2-F3 [9]: 47000 nM

B6: KIND2^Y13A (natural protein, UniProt Q8CIB5 1-680, looked up)
chain: MALDGIRMPDGCAADGTWELSVHVTDLNRDVTLRVTGEVHIGGVMLKLVEKLDVKKDWSDHALWWEKKRTWLLKTHWTLDKCGIQADAKLQFTPQHKLLRLQLPNMKYVKVKVNFSDRVFKAVSDICKTFNIRHPEELSLLKKPRDPTKKKKKKLDDQSEDEALELEGPLIMPGSGSIYSSPGLYSKTMTPTYDAHDGSPLSPTSAWFGDSALSEGNPGILAVSQPVTSPEILAKMFKPQALLDKAKTNQGWLDSSRSLMEQDVKENEALLLRFKYYSFFDLNPKYDAIRINQLYEQAKWALLLEEIECTEEEMMMFAALQYHINKLSIMTSENHLNNSDKEVDEVDAALSDLEITLEGGKTSTILGDITSIPELADYIKVFKPKKLTLKGYKQYWCTFKDTSISCYKSREESSGTPAHQLNLRGCEVTPDVNISGQKFNIKLLIPVAEGMNEIWLRCDNEKQYAHWMAACRLASKGKTMADSSYNLEVQNILSFLKMQHLNPDPQLIPDQITTDVNPECLVSPRYLKKYKSKQITARILEAHQNVAQMSLIEAKMRFIQAWQSLPEFGITHFIARFQGGKREELIGIAYNRLIRMDASTGDAIKTWRFSNMKQWNVNWEIKMVTVEFADEVRLSFICTEVDCKVVHEFIGGYIFLSTRAKDQNESLDEEMFYKLTSGWV
notes: kindlin-2 (KIND2) with Y13A; In FC-RDA a copy labelled with Alexa 647 was the reporter; also called 647–KIND2^Y13A; source: E. coli Rosetta, purified (IMAC, SEC); not shown: His10, N-terminal, cleaved; SUMO, N-terminal, cleaved
apparent Kd (Kd,app*) in the presence of THD1 [9]: 21000 nM
